Experiment [1] has as its target Kv1.3 K+ ion channel. In words: cell-based or functional assay.
Experiment [2] deals with Kv1.3 K+ ion channel. In words: cell-based or functional assay. This is another data set of the same source.

Where two headings read alike, the source gives them in different places.

For “ShK-186 ((phospho-Tyr)-AEEA-ShK-NH2) (peptide)”, the IC50, reduction in peak whole-cell Kv1.3 current at 40 mV (patch-clamp) in experiment [1] was determined as 69 pM. With RSCIDTIPKSRCTAFQCKHSMKYRLSFCRKTCGTC (modifications not checked) [ShK-221-gadolinium (DOTA-conjugate of ShK-198 coordinated with gadolinium)], the IC50, reduction in peak whole-cell Kv1.3 current at 40 mV (patch-clamp) in experiment [2] stood at 58.2 pM. Still for that read-out and setting: with RSCIDTIPKSRCTAFQCKHSMKYRLSFCRKTCGTC (modifications not checked) [ShK-221-indium (DOTA-conjugate of ShK-198 coordinated with indium)] the figure was 63.8 pM.

For the origin of these results see patent publication US20140221271A1.
